The values that follow come from the supplement of paper PMC11246515.

± gives the standard deviation of the averaged measurements.

The data set can be described thus: total protein half-life in vivo (active degradation + dilution); higher = more stable protein.
Setting [1] is: E. coli NCM3722 delta-clpP delta-lon delta-hslV, growth: N-lim chemostat, doubling time 6 h.
The mark [2] stands for this setting: E. coli NCM3722 delta-clpP, growth: N-lim chemostat, doubling time 6 h.
Where [3] appears, read: E. coli NCM3722 delta-hslV, growth: N-lim chemostat, doubling time 6 h.
[4] abbreviates: E. coli NCM3722 delta-lon, growth: N-lim chemostat, doubling time 6 h.
Setting [5] is: E. coli NCM3722 delta-smpB, growth: N-lim chemostat, doubling time 6 h.
[6] abbreviates: wild type E. coli NCM3722, growth: C-lim chemostat, doubling time 3 h.
[7] abbreviates: wild type E. coli NCM3722, growth: C-lim chemostat, doubling time 6 h.
Where [8] appears, read: wild type E. coli NCM3722, growth: C-lim chemostat, doubling time 12 h.
The mark [9] stands for this setting: wild type E. coli NCM3722, growth: N-lim chemostat, doubling time 6 h.
Setting [10] is: wild type E. coli NCM3722, growth: N-lim chemostat, doubling time 12 h.
The mark [11] stands for this setting: wild type E. coli NCM3722, growth: P-lim chemostat, doubling time 6 h.
Where [12] appears, read: wild type E. coli NCM3722, growth: P-lim chemostat, doubling time 12 h.

Regarding “MLKKILLLALLPAIAFAEELPAPVKAIEKQGITIIKTFDAPGGMKGYLGKYQDMGVTIYLTPDGKHAISGYMYNEKGENLSNTLIEKEIYAPAGREMWQRMEQSHWLLDGKKDAPVIVYVFADPFCPYCKQFWQQARPWVDSGKVQLRTLLVGVIKPESPATAAAILASKDPAKTWQQYEASGGKLKLNVPANVSTEQMKVLSDNEKLMDDLGANVTPAIYYMSKENTLQQAVGLPDQKTLNIIMGNK”, the “total protein half-life in vivo” value reads like this: under setting [1], 5.17 ± 0.63 h; under setting [2], 5.5 ± 0.14 h; under setting [3], 6.05 ± 0.24 h; under setting [4], 6.69 ± 1 h; under setting [5], 5.98 ± 0.33 h; under setting [6], 3.016 ± 0.006 h. The “total protein half-life in vivo” value under setting [7] came to 6.29 ± 0.74 h; the “total protein half-life in vivo” value under setting [8] is 11.3 ± 1.4 h; the “total protein half-life in vivo” value under setting [9] was determined as 6.16 ± 0.33 h; the “total protein half-life in vivo” value under setting [10] came out at 12.6 ± 0.62 h; the “total protein half-life in vivo” value under setting [11] turned out to be 5.78 ± 0.55 h; the “total protein half-life in vivo” value under setting [12] came out at 12.5 ± 0.27 h.

As to “MQQKMIQFSGDVSLPAVGQGTWYMGEDASQRKTEVAALRAGIELGLTLIDTAEMYADGGAEKVVGEALTGLREKVFLVSKVYPWNAGGQKAINACEASLRRLNTDYLDLYLLHWSGSFAFEETVAAMEKLIAQGKIRRWGVSNLDYADMQELWQLPGGNQCATNQVLYHLGSRGIEYDLLPWCQQQQMPVMAYSPLAQAGRLRNGLLKNAVVNEIAHAHNISAAQVLLAWVISHQGVMAIPKAATIAHVQQNAAVLEVELSSAELAMLDKAYPAPKGKTALDMV”, the “total protein half-life in vivo” value is, setting by setting: under setting [1], over 8 h; under setting [6], 2.9 ± 0.38 h; under setting [7], 5.61 ± 0.92 h; under setting [8], 8.61 ± 1.4 h; under setting [11], 5.03 ± 0.38 h; under setting [12], 9.97 ± 0.73 h.

As to “MPHHIVIVEDEPVTQARLQSYFTQEGYTVSVTASGAGLREIMQNQSVDLILLDINLPDENGLMLTRALRERSTVGIILVTGRSDRIDRIVGLEMGADDYVTKPLELRELVVRVKNLLWRIDLARQAQPHTQDNCYRFAGYCLNVSRHTLERDGEPIKLTRAEYEMLVAFVTNPGEILSRERLLRMLSARRVENPDLRTVDVLIRRLRHKLSADLLVTQHGEGYFLAADVC”, the “total protein half-life in vivo” value by setting is: under setting [1], 5.18 ± 0.63 h; under setting [2], 4.57 ± 0.43 h; under setting [4], 4.9 h; under setting [5], 3.92 ± 0.089 h; under setting [6], 2.78 ± 0.039 h; under setting [7], 5.13 ± 0.33 h. The “total protein half-life in vivo” value is 9.618 ± 0.075 h under setting [8]; 3.89 ± 0.33 h under setting [9]; 5.93 h under setting [10]; 4.28 h under setting [11]; 9.93 ± 0.41 h under setting [12].

“MSIPFTRWPEEFARRYREKGYWQDLPLTDILTRHAASDSIAVIDGERQLSYRELNQAADNLACSLRRQGIKPGETALVQLGNVAELYITFFALLKLGVAPVLALFSHQRSELNAYASQIEPALLIADRQHALFSGDDFLNTFVTEHSSIRVVQLLNDSGEHNLQDAINHPAEDFTATPSPADEVAYFQLSGGTTGTPKLIPRTHNDYYYSVRRSVEICQFTQQTRYLCAIPAAHNYAMSSPGSLGVFLAGGTVVLAADPSATLCFPLIEKHQVNVTALVPPAVSLWLQALIEGESRAQLASLKLLQVGGARLSATLAARIPAEIGCQLQQVFGMAEGLVNYTRLDDSAEKIIHTQGYPMCPDDEVWVADAEGNPLPQGEVGRLMTRGPYTFRGYYKSPQHNASAFDANGFYCSGDLISIDPEGYITVQGREKDQINRGGEKIAAEEIENLLLRHPAVIYAALVSMEDELMGEKSCAYLVVKEPLRAVQVRRFLREQGIAEFKLPDRVECVDSLPLTAVGKVDKKQLRQWLASRASA”: the “total protein half-life in vivo” value by setting is: under setting [1], 5.38 h; under setting [2], 4.77 h; under setting [3], 5.82 h; under setting [6], 2.73 ± 0.086 h; under setting [7], 5.32 h; under setting [12], 10.7 h.

In the case of “MAQPAAIIRIKNLRLRTFIGIKEEEINNRQDIVINVTIHYPADKARTSEDINDALNYRTVTKNIIQHVENNRFSLLEKLTQDVLDIAREHHWVTYAEVEIDKLHALRYADSVSMTLSWQR [P0AC19]”, the “total protein half-life in vivo” value under setting [1] is 4.1 ± 0.57 h; the “total protein half-life in vivo” value under setting [2] came to 2.73 ± 0.7 h; the “total protein half-life in vivo” value under setting [3] came to 2.79 ± 0.23 h; the “total protein half-life in vivo” value under setting [4] was 3.5 ± 0.081 h; the “total protein half-life in vivo” value under setting [5] was determined as 2.93 ± 0.14 h; the “total protein half-life in vivo” value under setting [7] is 4.77 ± 0.2 h. The “total protein half-life in vivo” value turned out to be 10 ± 4 h under setting [8]; 2.58 ± 0.23 h under setting [9]; 3.989 ± 0.015 h under setting [10]; 5.16 ± 0.45 h under setting [11]; 11.5 ± 0.42 h under setting [12].

On to “MKIKTRFAPSPTGYLHVGGARTALYSWLFARNHGGEFVLRIEDTDLERSTPEAIEAIMDGMNWLSLEWDEGPYYQTKRFDRYNAVIDQMLEEGTAYKCYCSKERLEALREEQMAKGEKPRYDGRCRHSHEHHADDEPCVVRFANPQEGSVVFDDQIRGPIEFSNQELDDLIIRRTDGSPTYNFCVVVDDWDMEITHVIRGEDHINNTPRQINILKALKAPVPVYAHVSMINGDDGKKLSKRHGAVSVMQYRDDGYLPEALLNYLVRLGWSHGDQEIFTREEMIKYFTLNAVSKSASAFNTDKLLWLNHHYINALPPEYVATHLQWHIEQENIDTRNGPQLADLVKLLGERCKTLKEMAQSCRYFYEDFAEFDADAAKKHLRPVARQPLEVVRDKLAAITDWTAENVHHAIQATADELEVGMGKVGMPLRVAVTGAGQSPALDVTVHAIGKTRSIERINKALDFIAERENQQ”, for which the “total protein half-life in vivo” value came to 5.79 ± 0.64 h under setting [1]; 5.2 ± 0.2 h under setting [2]; 5.5 ± 0.56 h under setting [3]; 5.42 ± 0.13 h under setting [4]; 5.06 ± 0.56 h under setting [5]; 3.22 ± 0.47 h under setting [6]. Besides, the “total protein half-life in vivo” value was 6.28 ± 0.22 h under setting [7]; 12.5 ± 0.98 h under setting [8]; 5.34 ± 0.34 h under setting [9]; 9.3 ± 0.16 h under setting [10]; 6.23 ± 0.25 h under setting [11]; 12.2 ± 0.93 h under setting [12].

On to “MAIPAFGLGTFRLKDDVVISSVITALELGYRAIDTAQIYDNEAAVGQAIAESGVPRHELYITTKIWIENLSKDKLIPSLKESLQKLRTDYVDLTLIHWPSPNDEVSVEEFMQALLEAKKQGLTREIGISNFTIPLMEKAIAAVGAENIATNQIELSPYLQNRKVVAWAKQHGIHITSYMTLAYGKALKDEVIARIAAKHNATPAQVILAWAMGEGYSVIPSSTKRKNLESNLKAQNLQLDAEDKKAIAALDCNDRLVSPEGLAPEWD”, for which the “total protein half-life in vivo” value is 4.33 ± 0.17 h under setting [1]; 4.57 ± 0.071 h under setting [2]; 4.59 ± 0.27 h under setting [3]; 4.76 ± 0.34 h under setting [4]; 4.78 ± 0.36 h under setting [5]; 3.05 ± 0.099 h under setting [6]. Further, the “total protein half-life in vivo” value came to 5.39 ± 0.67 h under setting [7]; 10.7 ± 6.2 h under setting [8]; 4.615 ± 0.044 h under setting [9]; 8.62 ± 3.3 h under setting [10]; 5.21 ± 0.41 h under setting [11]; 11.4 ± 0.5 h under setting [12].

For the sequence “MIKNLPQIVLLNIVGLALFLSWYIPVNHGFWLPIDADIFYFFNQKLVESKAFLWLVALTNNRAFDGCSLLAMGMLMLSFWLKENAPGRRRIVIIGLVMLLTAVVLNQLGQALIPVKRASPTLTFTDINRVSELLSVPTKDASRDSFPGDHGMMLLIFSAFMWRYFGKVAGLIALIIFVVFAFPRVMIGAHWFTDIIVGSMTVILIGLPWVLLTPLSDRLITFFDKSLPGKNKHFQNK”, the “total protein half-life in vivo” value is, setting by setting: under setting [1], 6.44 ± 0.069 h; under setting [3], 5.96 h; under setting [4], 5.5 ± 0.33 h; under setting [5], 4.98 ± 0.75 h; under setting [6], over 4 h; under setting [7], 5.87 ± 0.17 h. For the same sequence, the “total protein half-life in vivo” value under setting [9] was found to be 5.91 h, the “total protein half-life in vivo” value under setting [10] was 9.71 h, the “total protein half-life in vivo” value under setting [11] is 5.76 ± 0.068 h and the “total protein half-life in vivo” value under setting [12] turned out to be 14.4 h.
